# Measured values reported in IntAct's records for PubMed 11106648.
# B1: Tyrosine-protein phosphatase non-receptor type 1 (Homo sapiens), P18031 (parent)
# chain: MEMEKEFEQIDKSGSWAAIYQDIRHEASDFPCRVAKLPKNKNRNRYRDVSPFDHSRIKLHQEDNDYINASLIKMEEAQRSYILTQGPLPNTCGHFWEMVWEQKSRGVVMLNRVMEKGSLKCAQYWPQKEEKEMIFEDTNLKLTLISEDIKSYYTVRQLELENLTTQETREILHFHYTTWPDFGVPESPASFLNFLFKVRESGSLSPEHGPVVVHCSAGIGRSGTFCLADTCLLLMDKRKDPSSVDIKKVLLEMRKFRMGLIQTADQLRFSYLAVIEGAKFIMGDSSVQDQWKELSHEDLEPPPEHIPPPPRPPKRILEPHNGKCREFFPNHQWVKEETQEDKDCPIKEEKGSPLNAAPYGIESMSQDTEVRSRVVGGSLRGAQAASPAKGEPSLPEKDEDHALSYWKPFLVNMCVATVLTAGAYLCYRFLFNSNT
# Variants of: B1
# Details: with cadh2_chick CDH2, P10288
# cadh2_chick CDH2, P10288, sequence (P10288 whole entry): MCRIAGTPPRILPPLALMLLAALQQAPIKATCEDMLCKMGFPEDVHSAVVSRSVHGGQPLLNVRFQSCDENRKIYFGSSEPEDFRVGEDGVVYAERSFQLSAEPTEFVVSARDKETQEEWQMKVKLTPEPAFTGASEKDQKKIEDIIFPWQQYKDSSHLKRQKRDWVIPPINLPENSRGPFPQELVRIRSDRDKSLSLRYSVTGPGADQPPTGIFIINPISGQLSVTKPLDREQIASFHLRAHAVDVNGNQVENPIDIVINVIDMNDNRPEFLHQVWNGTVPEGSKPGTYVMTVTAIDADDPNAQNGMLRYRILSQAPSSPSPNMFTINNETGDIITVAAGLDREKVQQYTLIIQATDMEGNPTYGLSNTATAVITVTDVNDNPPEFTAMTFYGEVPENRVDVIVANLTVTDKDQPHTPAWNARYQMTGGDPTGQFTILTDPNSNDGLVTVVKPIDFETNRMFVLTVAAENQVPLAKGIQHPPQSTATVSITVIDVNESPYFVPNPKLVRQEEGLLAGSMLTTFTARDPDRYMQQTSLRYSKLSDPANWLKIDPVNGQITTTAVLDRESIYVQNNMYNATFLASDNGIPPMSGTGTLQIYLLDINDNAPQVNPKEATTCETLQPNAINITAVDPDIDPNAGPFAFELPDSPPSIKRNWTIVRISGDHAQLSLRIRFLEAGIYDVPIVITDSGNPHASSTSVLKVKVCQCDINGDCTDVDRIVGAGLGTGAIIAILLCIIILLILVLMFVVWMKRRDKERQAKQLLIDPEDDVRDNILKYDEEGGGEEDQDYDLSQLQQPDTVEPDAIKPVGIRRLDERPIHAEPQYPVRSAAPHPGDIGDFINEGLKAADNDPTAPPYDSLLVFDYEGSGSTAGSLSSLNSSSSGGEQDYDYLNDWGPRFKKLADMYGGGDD
row,Variant,effect of a mutation on the interaction
1,C215S,increasing interaction
2,Y66F;Y153F,increasing interaction
3,Y152F,decreasing interaction
4,Y153F,increasing interaction
5,Y66F;Y152F;Y153F,decreasing interaction
6,Y66F;Y152F,decreasing interaction
7,Y66F,increasing interaction

# Variants of: B1
# Details: with cadh2_mouse Cdh2, P15116
# cadh2_mouse Cdh2, P15116, sequence (P15116 whole entry): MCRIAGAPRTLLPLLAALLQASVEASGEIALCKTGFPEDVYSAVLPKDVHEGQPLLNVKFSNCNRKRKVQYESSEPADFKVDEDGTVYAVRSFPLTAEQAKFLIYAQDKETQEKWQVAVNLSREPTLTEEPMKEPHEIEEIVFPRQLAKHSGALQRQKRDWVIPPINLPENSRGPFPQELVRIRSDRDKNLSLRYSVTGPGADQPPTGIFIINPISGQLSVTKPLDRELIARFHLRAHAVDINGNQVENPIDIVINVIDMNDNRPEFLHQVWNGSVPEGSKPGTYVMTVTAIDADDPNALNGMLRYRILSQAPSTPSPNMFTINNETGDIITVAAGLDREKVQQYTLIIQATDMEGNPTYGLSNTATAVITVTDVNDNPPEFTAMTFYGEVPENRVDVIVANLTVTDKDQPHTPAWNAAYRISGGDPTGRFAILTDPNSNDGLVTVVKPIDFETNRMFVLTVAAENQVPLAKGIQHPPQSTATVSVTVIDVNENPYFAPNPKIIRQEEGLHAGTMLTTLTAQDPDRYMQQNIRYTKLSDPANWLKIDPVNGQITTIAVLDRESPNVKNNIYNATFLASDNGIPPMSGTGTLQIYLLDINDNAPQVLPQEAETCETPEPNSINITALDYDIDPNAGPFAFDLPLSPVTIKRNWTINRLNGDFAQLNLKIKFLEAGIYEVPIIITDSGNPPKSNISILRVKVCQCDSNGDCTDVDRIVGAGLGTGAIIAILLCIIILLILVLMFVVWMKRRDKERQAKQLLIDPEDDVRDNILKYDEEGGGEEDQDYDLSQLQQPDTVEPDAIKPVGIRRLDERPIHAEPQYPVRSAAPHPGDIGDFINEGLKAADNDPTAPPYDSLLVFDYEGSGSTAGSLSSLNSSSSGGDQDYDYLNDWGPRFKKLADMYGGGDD
row,Variant,effect of a mutation on the interaction
1,C215S,disrupting interaction strength

# Variants of: B1
# Details: with cadh2_mouse Cdh2, P15116
# Remark: another data set of the same source
row,Variant,effect of a mutation on the interaction
1,Y152F,disrupting interaction
